In paper PMC10641686, “Fcγ receptor binding is required for maximal immunostimulation by CD70-Fc” (Frontiers in Immunology, 2023):
Read-outs that look alike come from different tables or passages of the source.

Key:
[1] = target: FcγRs (mouse (endogenous in C57BL/6 mice))
[2] = target: T1, Recombinant mouse CD27-human Fc (mouse, UniProt P41272 24-182); experiment: SPR; apparent; Biacore T200, HBS-EP+; mouse CD27-human Fc captured on anti-human IgG coupled to a CM5 chip; CD70 fusion proteins (1.56, 6.25, 25 and 100 nM) injected at 30 ul/min; KD from ka and kd
T1 construct: CD27, mouse; Captured by anti-human IgG on the chip; no catalogue number is printed; also called CD27-Fc; mouse CD27 protein; source: bought: R&D systems
T1 sequence (looked up): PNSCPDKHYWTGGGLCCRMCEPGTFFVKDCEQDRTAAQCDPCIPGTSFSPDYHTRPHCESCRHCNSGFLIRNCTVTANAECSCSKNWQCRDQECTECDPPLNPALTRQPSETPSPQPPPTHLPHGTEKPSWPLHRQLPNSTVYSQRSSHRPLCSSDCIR

[3] = target: dimer of trimer CD70-Fc fusion protein (dtCD70-Fc) (mouse) (UniProt O55237); experiment: SDS-PAGE under non-reducing and reducing conditions; 5 ug purified protein on a 10% SDS-polyacrylamide gel, Coomassie blue; disulfide-linked dimer of the Fc fusion chain
[4] = target: anti-CD27 mouse IgG1 (recombinant, from hybridoma AT124-1) (mouse); experiment: SPR; about 2000 RU of dtCD70-Fc or anti-CD27 immobilised on a CM5 chip by amine coupling; mouse FcRn (0, 0.8, 4, 20, 100, 500 nM) injected 3 min at 30 ul/min in HBS-EP+ pH 6; KD from steady-state binding levels
[5] = target: dimer of trimer CD70-Fc fusion protein (dtCD70-Fc) (mouse) (UniProt O55237); experiment: as above

**Q.** For “Endo H treated dtCD70-Fc (from UniProt O55237 41-195; O55237 41-195; O55237 41-195) (Fc fusion)”, which OT-I T cell expansion in vivo during the primary response, Endo H treated dtCD70-Fc (wild-type Fc) against Endo H treated dtCD70-Fc(D265A) [1] is on record?
**A.** 3 fold

**Q.** For “dimer of trimer CD70-Fc fusion protein (dtCD70-Fc) (from UniProt O55237 41-195; O55237 41-195; O55237 41-195)”, which Kd [2] is on record?
**A.** 0.6 nM

**Q.** What about the stoichiometry N [3] of the same molecule?
**A.** 2

B1: recombinant mouse FcRn (receptor)
chain: SETRPPLMYHLTAVSNPSTGLPSFWATGWLGPQQYLTYNSLRQEADPCGAWMWENQVSWYWEKETTDLKSKEQLFLEALKTLEKILNGTYTLQGLLGCELASDNSSVPTAVFALNGEEFMKFNPRIGNWTGEWPETEIVANLWMKQPDAARKESEFLLNSCPERLLGHLERGRRNLEWKEPPSMRLKARPGNSGSSVLTCAAFSFYPPELKFRFLRNGLASGSGNCSTGPNGDGSFHAWSLLEVKRGDEHHYQCQVEHEGLAQPLTVDLDSSARSS
**Q.** B1 was tested. Which Kd [4] did it give?
**A.** 49 nM

**Q.** And the Kd [5]?
**A.** 46 nM

B2: Soluble trimeric CD70 (tCD70) (ligand, mouse, UniProt O55237 41-195, looked up)
chain: SGLLSKQQQRLLEHPEPHTAELQLNLTVPRKDPTLRWGAGPALGRSFTHGPELEEGHLRIHQDGLYRLHIQVTLANCSSPGSTLQHRATLAVGICSPAAHGISLLRGRFGQDCTVALQRLTYLVHGDVLCTNLTLPLLPSRNADETFFGVQWICP
notes: CD70, mouse, extracellular domain S41-P195; Predicted chain MW 51.5 kDa; also called CD4 fusion protein; not shown: CD4 domains 3 and 4 (mouse), N-terminal, kept
**Q.** With B2 as the molecule, how does the Kd ([2]; both partners purified) read?
**A.** 1.2 nM
